Tests used:
[1] = Liquid formulation screens: freeze/thaw, shear stress, short-term stability; assay type: physicochemical; conditions: 20 mg/mL, formulations of TABLE 11
Method: Formulation development to establish the lyophilization buffer was performed by initially screening the freeze-thaw and shear-induced liquid stability of the target construct following dialysis into combinations of several components outlined below:
Using these two formulations, in order to ensure that the UF/DF step would function as intended and that freezing at the beginning of the lyophilization process would be acceptable, a final liquid formulation freeze/thaw screen and short-term stability study was conducted at higher protein concentrations as outlined in TABLE 11 below.
This formulation was recommended to proceed as the buffer to be used in the UF/DF formulation step prior to lyophilization.

[2] = Evaluation of chromatography modes (CEX, HIC): protein stability; assay type: physicochemical
Method: Several modes of chromatography were evaluated during process development.

[3] = tested on: cells of the lamina propria (LAMP1, CD11c, CD19, CD34, CD3); assay: Cell targeting in the lamina propria after intraluminal injection, immunofluorescence; assay type: in vivo, Wistar rats
Method: Rats were anesthetized using inhaled isoflurane and euthanized by inhaled CO2.
Experiments were initiated by making an approximately 4 cm abdominal incision to access the mid-jejunum region of the small intestine. After performing the incision, 50 μl of a prepared solution of the IL-10 delivery construct (typically at about 1 mg/mL) was injected into the intestinal lumen of an area devoid of foodstuffs through a 27-gauge needle using a 1 mL syringe. The mesentery adjacent to the site of injection was labeled with a marker and the intestine was returned to the abdominal cavity, with the incision being closed with clamps.
At specific times, the injected intestine was retrieved, surgically isolated and flushed with a 4° C. isotonic PBS. Washed, excised samples were fixed (4% paraformaldehyde in PBS) overnight at 4° C. before dehydration through graded series of ethanol/water solutions and overnight incubation in chloroform.
Dehydrated tissues were immersed in wax, sectioned, and mounted on poylysine slides and processed for antigen retrieval using sodium citrate. Afterward, sections were permeabilised with 0.2% Triton-X100 in PBS prior to thrice washing in PBS and blocking with 2% BSA+2% serum of the animal the secondary antibodies have been raised. Primary antibodies were diluted in 1% BSA, 0.1% Triton-X100 in PBS and incubated overnight at 4° C. in humidified air. Fluorescent secondary antibodies were diluted in 1% BSA, 0.1% Triton-X100 in PBS and incubated for 2 h at RT prior to processing for confocal microscopy. On occasion, an approximately 1 cm section of intestine at the injection site was collected for biochemical studies.
Proteins for specific cell types were examined by immuno-fluorescence using confocal microscopy. The IL-10 delivery construct components (the carrier, also referred to herein as “cholix,” and IL-10) were followed separately with either a polyclonal antibody (pAb) or monoclonal antibody (mAb) to IL-10 or a pAb or mAb to the carrier domain to allow co-localization with pAb or mAbs available (TABLE 46).

[4] = PK/PD by route (oral, subcutaneous, intravenous) in NHP; assay type: in vivo, Macaca fascicularis
Source text: For oral administration the IL-10 delivery construct was formulated in size 0 enteric coated capsules. For intravenous or subcutaneous administration it was formulated as a liquid in DS lyo formulation.

STAT3 [5] = assay: In vivo pSTAT3 induction in lamina propria, immunofluorescence confocal microscopy; parameters: species or system Balb/C mice
Method: In vivo studies in mice were performed where the biological activity of human IL-10 following transcytosis was assessed for its ability to stimulate the mouse IL-10 receptor and increase phosphorylation of STAT3 (pSTAT3) in cells within the lamina propria.
An extensive amount of rhIL-10 (SEQ ID NO: 5) was trafficked through enterocytes. Additionally, there were a population of lymphocyte-like cells at the basolateral surface of enterocytes and within the lamina propria that were pSTAT3 positive.
Entire intestines of mice were isolated and processed as a “swiss role” and localization of pSTAT3 was detected by immunofluorescence confocal microscopy (FIG. 110).

[6] = Intraluminal injection in T-cell transfer model: rhIL-10 ELISA in intestinal tissue and serum; assay type: in vivo, BALB/c and SCID mice
Method: This study was conducted to examine the potential for the carrier protein to transport rhIL-10 from the intestinal lumen into the submucosal region in inflamed intestinal tissue. The T lymphocyte (T cell) transfer model was used as it is a well-established model of induced chronic colitis in mice and presents many of the essential immunological hallmarks observed in IBD patients. Nine BALB/c mice and twelve SCID mice, including nine with the colitis-like model of inflammation, were dosed with 20 μl of test article via intraluminal injection into the distal ileum and the proximal, middle and distal colon. […] In each group, two mice were terminated 10 minutes after intraluminal injections, and one was terminated 40 minutes after intraluminal injections. Intestinal tissue and serum were collected. Collected tissue was fixed, embedded, sectioned and H&E stained for histological assessment of inflammatory status. ELISA analysis to measure rhIL 10 was performed on lysates prepared from intestinal tissue and serum (FIGS. 106A-106D).

[7] = Purification with and without sulfitolysis: SEC-HPLC forms, yield and dimer recovery after Capto Q; conditions: for Dimer Purity after Capto Q Chromatography: Capto Q load 1680 mg; for Dimer Purity: after Capto Q chromatography
Method: Refolding in both processes was carried out at 4° C. The refolding solution used in both processes contained 1 mM reduced glutathione, 0.5 mM oxidized glutathione, 1M Arginine-HCl, 250 mM sucrose, 100 mM Tris pH 8.5 at 4° C., and 2 mM EDTA.

STAT3 [8] = assay: pSTAT3 induction and hIL-10 in intestinal tissue 40 min after oral gavage, immunofluorescence and image analysis; assay type: in vivo, rat; conditions: 40 min post oral gavage
Method: This observation is consistent with findings in mice that intestinal epithelial cells can express IL-10 receptors at their apical surface under certain conditions associated with development and maintenance of barrier function. […] In order to quantify how test articles affected intestinal IL-10 signal transduction pathways, image analysis was performed: high-throughput image batches were collected, segmented by epithelial versus lamina propria localization, and then by cellular features.

[9] = tested on: CD3+ cells and F4/80 macrophages; assay: Cellular target in lamina propria after oral gavage (CD3, F4/80, pSTAT3); assay type: in vivo, mouse; conditions: 40 min after oral gavage
[10] = 37 C, 5 h, 0.3 mg/mL
[11] = No Sulfitolysis of SIB (2x UF/DF at 4° C.), SEC-HPLC before AEX
[12] = No Sulfitolysis of SIB (2x UF/DF for 66 h RT), SEC-HPLC before AEX
[13] = No Sulfitolysis of SIB (97 mL Capto Q)
[14] = Sulfitolysis of SIB (97 mL Capto Q)
[15] = Sulfitolysis of SIB (TFF-2 for 20 h at RT), SEC-HPLC after UF/DF, before AEX

B1: IL-10 delivery construct: recombinant homodimeric fusion protein: N-terminal methionine, cholix386 domain, polyGlySer spacer, recombinant human IL-10 (protein)
chain: MVEEALNIFDECRSPCSLTPEPGKPIQSKLSIPSDVVLDEGVLYYSMTINDEQNDIKDEDKGESIITIGEFATVRATRHYVNQDAPFGVIHLDITTENGTKTYSYNRKEGEFAINWLVPIGEDSPASIKISVDELDQQRNIIEVPKLYSIDLDNQTLEQWKTQGNVSFSVTRPEHNIAISWPSVSYKAAQKEGSRHKRWAHWHTGLALCWLVPMDAIYNYITQQNCTLGDNWFGGSYETVAGTPKVITVKQGIEQKPVEQRIHFSKGNAMSALAAHRVCGVPLETLARSRKPRDLTDDLSCAYQAQNIVSLFVATRILFSHLDSVFTLNLDEQEPEVAERLSDLRRINENNPGMVTQVLTVARQIYNDYVTHHPGLTPEQTSAGAQAGGGGSGGGGSGGGGSPGQGTQSENSCTHFPGNLPNMLRDLRDAFSRVKTFFQMKDQLDNLLLKESLLEDFKGYLGCQALSEMIQFYLEEVMPQAENQDPDIKAHVNSLGENLKTLRLRLRRCHRFLPCENKSKAVEQVKNAFNKLQEKGIYKAMSEFDIFINYIEAYMTMKIRN
modifications: homodimer
aggregation during freeze/thaw or at 1 week at 4 C [1]: did not show any significant increases in aggregation | behaviour at relatively low pH (cation exchange) [2]: precipitate at a pH below the pI of the target construct (pH 5.5) | behaviour in high salt (hydrophobic interaction chromatography) [2]: unstable in the high salt | time by which an extensive amount reached the lamina propria ([3]; 1-minute pulse, intraluminal injection): ≤ 15 min | co-localization with LAMP1-positive lysosomes in enterocytes ([3]; 15-minute time course): little or no co-localization | co-localization with CD3 antigen (T lymphocytes) ([3]; lamina propria): striking co-localizations | co-localization with CD19-positive cells (B-lymphocytes) ([3]; lamina propria): failed to co-localize | co-localization with CD34-positive cells (endothelia) ([3]; lamina propria): failed to co-localize | co-localization with CD11c (dendritic cells) ([3]; rat jejunum lamina propria): did not co-localize with CD11c antigen to any striking extent | systemic levels of IL-10 after oral treatment ([4]; oral 1 mg or 5 mgs vs SC 0.2 mg/kg, IV 0.05 mg/kg): minimal systemic levels of IL-10 | IL-1Ra/IL-1β ratio ([4]; subcutaneous or intravenous administration): minimal effect | phosphorylation of STAT3 in cells within the lamina propria (STAT3 [5]; intraluminal injection into jejunum): increased phosphorylation of STAT3 | IL-10 activity (pSTAT3) along the intestine (STAT3 [5]; oral gavage): demonstrated along the length of intestine | rhIL-10 levels in inflamed tissue relative to rhIL-10 alone ([6]; 159 pmoles): approximately 10 fold higher | uptake in normal intestinal tissues compared to rhIL-10 alone ([6]; 159 pmoles): two- to five-fold higher | rhIL-10 in intestinal tissue compared to rhIL-10 alone ([6]; 159 pmoles, 10-minute exposure): substantially higher | rhIL-10 in serum of healthy animals ([6]; intraluminal injection): moderately high rhIL-10 detected | rhIL-10 in serum of inflamed animals ([6]; intraluminal injection): minimal amounts of rhIL-10 were detected | Aggregate % [7, 11]: 36% | Monomer % [7, 11]: 22% | Aggregate % [7, 12]: 57% | Monomer % [7, 12]: 11% | Dimer Purity after Capto Q Chromatography [7, 13]: 84% | Dimer Purity [7, 13]: 84% | Dimer Purity after Capto Q Chromatography [7, 14]: 74% | Dimer Purity [7, 14]: 74% | Aggregate % [7, 15]: 68% | Monomer % [7, 15]: 8% | Dimer Purity ([7]; Sulfitolysis of SIB (average of 3)): 82-83% | hIL-10 and pSTAT3 in intestinal tissue (STAT3 [8]): extensive amounts of hIL-10 and a large number of cells that were positive for pSTAT3 within the lamina propria | co-localization of pSTAT3 with CD3+ cells [9]: A moderate proportion of CD3+ cells | co-localization of pSTAT3 with F4/80 macrophages [9]: extensive co-localization with pSTAT3 | solution stability after reconstitution in PBS [10]: significant degradation
